Data from the supplement of paper PMC9112550, “Optimization of the antimicrobial peptide Bac7 by deep mutational scanning” (BMC Biology, 2022).

test system: Escherichia coli TOP10; assay: shrunken log2 fold change of peptide-encoding DNA abundance (4.5 h post-induction vs induction); higher = less antimicrobial activity (less host growth inhibition); settings: time post-induction: 4.5 h; library: site-saturation at positions 5, 18, 19, 20
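Note: peptides expressed intracellularly from a pBAD plasmid library in pooled LB shake-flask culture, induced with 0.3% L-arabinose, DNA abundance read by NGS, three biological replicates, DESeq2 with apeglm shrinkage.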

Sequence	shrunken log2 fold change
RRIRARPPRLPRPRPRPVQAPRP	0.312
RRIRSRPPRLPRPRPRPYFPPRP	-0.694
RRIRHRPPRLPRPRPRPWRWPRP	0.16
RRIRERPPRLPRPRPRPMQVPRP	-0.32
RRIRKRPPRLPRPRPRPRSHPRP	0.38
RRIRFRPPRLPRPRPRPDVQPRP	-0.0115
RRIRCRPPRLPRPRPRPWVAPRP	-0.0206
RRIRHRPPRLPRPRPRPTEHPRP	-0.243
RRIRTRPPRLPRPRPRPDGCPRP	0.127
RRIRFRPPRLPRPRPRPQMPPRP	-0.107
RRIRARPPRLPRPRPRPQCGPRP	0.436
RRIRCRPPRLPRPRPRPLHGPRP	-0.089
RRIRVRPPRLPRPRPRPHEMPRP	-0.058
RRIRKRPPRLPRPRPRPEHVPRP	0.0142
RRIRKRPPRLPRPRPRPQFMPRP	-0.54
RRIRTRPPRLPRPRPRPRWIPRP	0.0272
RRIRARPPRLPRPRPRPTDCPRP	0.0381
RRIRYRPPRLPRPRPRPCWYPRP	-1.03
RRIRKRPPRLPRPRPRPESYPRP	0.403
RRIRNRPPRLPRPRPRPYEHPRP	-0.151
RRIRERPPRLPRPRPRPRSTPRP	-0.259
RRIRFRPPRLPRPRPRPKTEPRP	0.0656
RRIRMRPPRLPRPRPRPNFPPRP	-0.186
RRIRTRPPRLPRPRPRPSHKPRP	-0.421
RRIRCRPPRLPRPRPRPWWCPRP	-0.248

Sequence	shrunken log2 fold change
RRIRIRPPRLPRPRPRPLEIPRP	-0.0939
RRIRSRPPRLPRPRPRPYMVPRP	-0.497
RRIRYRPPRLPRPRPRPRNPPRP	0.0734
RRIRSRPPRLPRPRPRPKMEPRP	-0.0294
RRIRRRPPRLPRPRPRPSDCPRP	-0.0825
RRIRERPPRLPRPRPRPTHHPRP	-0.0607
RRIRERPPRLPRPRPRPEGNPRP	0.00934
RRIRGRPPRLPRPRPRPTDIPRP	0.114
RRIRARPPRLPRPRPRPNSYPRP	-0.00611
RRIRDRPPRLPRPRPRPKRGPRP	0.0777
RRIRGRPPRLPRPRPRPWVIPRP	-0.257
RRIRQRPPRLPRPRPRPAVYPRP	-0.15
RRIRARPPRLPRPRPRPPRVPRP	0.875
RRIRFRPPRLPRPRPRPYKGPRP	-0.631
RRIRTRPPRLPRPRPRPMRFPRP	0.00408
RRIRIRPPRLPRPRPRPEWLPRP	-0.216
RRIRGRPPRLPRPRPRPERVPRP	0.397
RRIRHRPPRLPRPRPRPGNEPRP	-0.364
RRIRIRPPRLPRPRPRPNDWPRP	0.0555
RRIRGRPPRLPRPRPRPVCHPRP	0.54
RRIRYRPPRLPRPRPRPHSYPRP	-0.188
RRIRDRPPRLPRPRPRPSMCPRP	0.123
RRIRWRPPRLPRPRPRPILSPRP	-0.422
RRIRTRPPRLPRPRPRPLSIPRP	-0.487
RRIRGRPPRLPRPRPRPYTLPRP	-0.616
